According to PMC7617869, “Molecular glues that inhibit deubiquitylase activity and inflammatory signaling” (Nature Structural & Molecular Biology, 2025):
“And” between values parts separate entries of the source, which are not always exact repeats. Equal entries are not always repeated.

Key:
Assay type in all cases: biochemical
BRISC BRCC36 W130A = BRISC BRCC36 W130A (Homo sapiens, UniProt P46736+Q15018+Q9NXR7, W130A); assay: BRISC mutant IQF assay: BRCC36 W130A
Procedure: (§1) IQF assays were performed in DUB reaction buffer containing 50 mM HEPES–NaOH pH 7.0, 100 mM NaCl, 0.1 mg ml^−1 BSA, 1 mM DTT and 0.03% v/v Brij-35. […] The final concentration of BRISC WT, all BRISC mutants, HsBRISCΔLoop, MmBRISC and DrBRISCΔNΔC was 1 nM. Other enzymes were tested at the following concentrations: 5 nM ARISC (FL), 10 nM CfBRISCΔNΔC, 250 nM AMSH* (ref. [43]), 500 nM USP2 and 1 μM trypsin (Sigma, 9002-07-7). For Michaelis–Menten experiments, 1 nM BRISC with 0–1 μM IQF K63-linked diubiquitin substrate was used. Michaelis–Menten analyses and Lineweaver–Burk plots were calculated using GraphPad Prism (version 9.0).
(§2) To assess enzymatic activity, BRISC complexes were diluted to concentrations between 1 nM and 50 nM. […] Then, 20-μl enzyme reactions were carried out in 384-well black flat-bottom low-flange plates (Corning, 35373). DUB activity was measured using IQF K63-linked diubiquitin (LifeSensors, DU6303) at 50 nM. Cleaved diubiquitin was monitored by measuring fluorescence intensity (excitation, 544 nm; emission, 575 nm; dichroic mirror, 560 nm). Fluorescence intensity was measured every minute for 30 min at 30 °C. Fluorescence intensity units were plotted against time to generate a linear reaction progress curve, where the initial velocity (V0) corresponds to the gradient of the curve (typically achieved within 15 min). IC50 values were calculated using the GraphPad Prism (version 9.0) built-in dose–response equation for inhibitor concentration versus response (variable slope).

BRISC Abraxas2 T140A = BRISC Abraxas2 T140A (Homo sapiens, UniProt P46736+Q15018+Q9NXR7, T140A); assay: BRISC mutant IQF assay: Abraxas2 T140A; settings: for Normalised V0: Abraxas2 T140A
Procedure: as §1, §2

BRISC BRCC45 C245A = BRISC BRCC45 C245A (Homo sapiens, UniProt P46736+Q15018+Q9NXR7, C245A); assay: BRISC mutant IQF assay: BRCC45 C245A
Procedure: as §1, §2

BRISC BRCC45 R137A = BRISC BRCC45 R137A (Homo sapiens, UniProt P46736+Q15018+Q9NXR7, R137A); assay: BRISC mutant IQF assay: BRCC45 R137A
Procedure: as §1, §2

B1: SHMT2: serine hydroxymethyltransferase 2, metabolic enzyme and endogenous inhibitor of BRISC DUB activity (protein)
chain: QLVRMAIRAQHSNAAQTQTGEANRGWTGQESLSDSDPEMWELLQREKDRQCRGLELIASENFCSRAALEALGSCLNNKYSEGYPGKRYYGGAEVVDEIELLCQRRALEAFDLDPAQWGVNVQPYSGSPANLAVYTALLQPHDRIMGLDLPDGGHLTHGYMSDVKRISATSIFFESMPYKLNPKTGLIDYNQLALTARLFRPRLIIAGTSAYARLIDYARMREVCDEVKAHLLADMAHISGLVAAKVIPSPFKHADIVTTTTHKTLRGTRSGLIFYRKGVKAVDPKTGREIPYTFEDRINFAVFPSLQGGPHNHAIAAVAVALKQACTPMFREYSLQVLKNARAMADALLERGYSLVSGGTDNHLVLVDLRPKGLDGARAERVLELVSITANKNTCPGDRSAITPGGLRLGAPALTSRQFREDDFRRVVDFIDEGVNIGLEVKSKTAKLQDFKSFLLKDSETSQRLANLRQRVEQFARAFPMPGFDEH
BRISC BRCC36 W130A; SHMT2 6.25 nM
  Normalised V0: 1.076 and 0.9844 and 0.926
BRISC BRCC36 W130A; SHMT2 12.5 nM
  Normalised V0: 0.9633 and 0.8672 and 0.8727
BRISC BRCC36 W130A; SHMT2 25 nM
  Normalised V0: 0.8129 and 0.833 and 0.8407
BRISC BRCC36 W130A; SHMT2 50 nM
  Normalised V0: 0.7117 and 0.7254 and 0.8132
BRISC BRCC36 W130A; SHMT2 100 nM
  Normalised V0: 0.5212 and 0.5553 and 0.3708
BRISC BRCC36 W130A; SHMT2 200 nM
  Normalised V0: 0.4561 and 0.482 and 0.3879
BRISC Abraxas2 T140A; Abraxas 2 T140A
  SHMT2 inhibition of BRISC mutant: reduced BRISC inhibition by SHMT2
BRISC Abraxas2 T140A; SHMT2 0.00347222 nM
  Normalised V0: 0.9459 and 1.003 and 1.126
BRISC Abraxas2 T140A; SHMT2 0.0347222 nM
  Normalised V0: 0.9478 and 0.9048 and 1.065
BRISC Abraxas2 T140A; SHMT2 0.347222 nM
  Normalised V0: 1.002 and 0.9158 and 1.209
BRISC Abraxas2 T140A; SHMT2 1.04167 nM
  Normalised V0: 0.9422 and 0.8854 and 1.017
BRISC Abraxas2 T140A; SHMT2 3.125 nM
  Normalised V0: 0.7382 and 0.7698 and 1.0401
BRISC Abraxas2 T140A; SHMT2 6.25 nM
  Normalised V0: 0.8737 and 0.7897 and 1.032
BRISC Abraxas2 T140A; SHMT2 12.5 nM
  Normalised V0: 0.7421 and 0.6608 and 0.8191
BRISC Abraxas2 T140A; SHMT2 25 nM
  Normalised V0: 0.6241 and 0.5064 and 0.8208
BRISC Abraxas2 T140A; SHMT2 100 nM
  Normalised V0: 0.3175 and 0.5076
BRISC Abraxas2 T140A; SHMT2 200 nM
  Normalised V0: 0.2755 and 0.2287 and 0.3324
BRISC BRCC45 C245A; SHMT2 0.00347222 nM
  Normalised V0: 0.9588 and 1.144 and 1.038
BRISC BRCC45 C245A; SHMT2 0.0347222 nM
  Normalised V0: 0.8809 and 1.071 and 0.9852
BRISC BRCC45 C245A; SHMT2 0.347222 nM
  Normalised V0: 0.7622 and 1.011 and 1.053
BRISC BRCC45 C245A; SHMT2 1.04167 nM
  Normalised V0: 0.7409 and 0.9691 and 1.004
BRISC BRCC45 C245A; SHMT2 3.125 nM
  Normalised V0: 0.5581 and 0.7111 and 0.7493
BRISC BRCC45 C245A; SHMT2 6.25 nM
  Normalised V0: 0.4848 and 0.6695 and 0.6719
BRISC BRCC45 C245A; SHMT2 12.5 nM
  Normalised V0: 0.4215 and 0.5643 and 0.477
BRISC BRCC45 C245A; SHMT2 25 nM
  Normalised V0: 0.501 and 0.3965 and 0.329
BRISC BRCC45 C245A; SHMT2 50 nM
  Normalised V0: 0.391 and 0.3153 and 0.2153
BRISC BRCC45 C245A; SHMT2 100 nM
  Normalised V0: 0.3584 and 0.2521 and 0.1837
BRISC BRCC45 C245A; SHMT2 200 nM
  Normalised V0: 0.2257 and 0.1737 and 0.1153
BRISC BRCC45 R137A; SHMT2 0.00347222 nM
  Normalised V0: 1.014 and 1.027 and 1.065
BRISC BRCC45 R137A; SHMT2 0.0347222 nM
  Normalised V0: 1.097 and 0.9804 and 1.087
BRISC BRCC45 R137A; SHMT2 0.347222 nM
  Normalised V0: 0.9721 and 1.019 and 0.9944
BRISC BRCC45 R137A; SHMT2 1.04167 nM
  Normalised V0: 0.7112 and 0.6836 and 0.8504
BRISC BRCC45 R137A; SHMT2 3.125 nM
  Normalised V0: 0.4073 and 0.4138 and 0.6039
BRISC BRCC45 R137A; SHMT2 6.25 nM
  Normalised V0: 0.3218 and 0.2523 and 0.3959
BRISC BRCC45 R137A; SHMT2 12.5 nM
  Normalised V0: 0.1807 and 0.195 and 0.2065
BRISC BRCC45 R137A; SHMT2 25 nM
  Normalised V0: 0.1093 and 0.1844 and 0.1637
BRISC BRCC45 R137A; SHMT2 50 nM
  Normalised V0: 0.06765 and 0.12 and 0.1128
BRISC BRCC45 R137A; SHMT2 100 nM
  Normalised V0: 0.03288 and 0.04915 and 0.05253
BRISC BRCC45 R137A; b47 speaks of all BRCC45 mutants
  SHMT2 inhibition of BRISC BRCC45 mutants: without affecting SHMT2 inhibition
